Source: article PMC10397247

Tests used:
Assay in all cases: two-hybrid library CCNG1;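 further: natural log of median RNA to DNA barcode read ratio; higher means stronger binding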
4H2444-bA = target: T1, 4H2444-bA
T1 chain: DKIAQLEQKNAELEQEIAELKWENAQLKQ

4H2931-bN = target: T2, 4H2931-bN
T2 chain: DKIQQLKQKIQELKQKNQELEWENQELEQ

4H2859-bN = target: T3, 4H2859-bN
T3 chain: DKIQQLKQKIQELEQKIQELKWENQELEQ

4H56-bN = target: T4, 4H56-bN
T4 chain: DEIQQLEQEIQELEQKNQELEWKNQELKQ

4H730-bN = target: T5, 4H730-bN
T5 chain: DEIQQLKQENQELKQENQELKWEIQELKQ

4H932-bN = target: T6, 4H932-bN
T6 chain: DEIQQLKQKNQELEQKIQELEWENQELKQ

4H2162-bN = target: T7, 4H2162-bN
T7 chain: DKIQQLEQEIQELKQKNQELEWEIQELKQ

4H2444-bN = target: T8, 4H2444-bN
T8 chain: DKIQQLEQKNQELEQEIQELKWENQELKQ

4H235-bN = target: T9, 4H235-bN
T9 chain: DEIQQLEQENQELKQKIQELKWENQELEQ

4H3297-bN = target: T10, 4H3297-bN
T10 chain: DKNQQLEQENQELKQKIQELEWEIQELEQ

4H3381-bN = target: T11, 4H3381-bN
T11 chain: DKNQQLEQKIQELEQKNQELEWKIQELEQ

4H949-bN = target: T12, 4H949-bN
T12 chain: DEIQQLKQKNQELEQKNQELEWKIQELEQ

4H2760-bN = target: T13, 4H2760-bN
T13 chain: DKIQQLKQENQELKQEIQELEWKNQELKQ

4H349-bN = target: T14, 4H349-bN
T14 chain: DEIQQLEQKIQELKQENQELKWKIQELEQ

4H2518-bN = target: T15, 4H2518-bN
T15 chain: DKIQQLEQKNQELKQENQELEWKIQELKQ

4H2233-bN = target: T16, 4H2233-bN
T16 chain: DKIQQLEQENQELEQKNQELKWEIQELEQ

4H796-bN = target: T17, 4H796-bN
T17 chain: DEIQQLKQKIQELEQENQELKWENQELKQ

4H2585-bN = target: T18, 4H2585-bN
T18 chain: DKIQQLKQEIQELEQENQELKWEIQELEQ

4H3364-bN = target: T19, 4H3364-bN
T19 chain: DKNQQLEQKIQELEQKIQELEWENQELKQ

4H2253-bN = target: T20, 4H2253-bN
T20 chain: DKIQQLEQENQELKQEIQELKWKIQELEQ

4H264-bN = target: T21, 4H264-bN
T21 chain: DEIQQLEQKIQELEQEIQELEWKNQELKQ

4H3041-bN = target: T22, 4H3041-bN
T22 chain: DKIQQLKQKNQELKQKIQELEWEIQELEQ

- interaction score (4H2444-bA): -0.359
- interaction score (4H2931-bN): -1.12
- interaction score (4H2859-bN): 0.571
- interaction score (4H56-bN): -0.33
- interaction score (4H730-bN): -0.649
- interaction score (4H932-bN): -0.305
- interaction score (4H2162-bN): 1.61
- interaction score (4H2444-bN): -1.27
- interaction score (4H235-bN): -0.0614
- interaction score (4H3297-bN): -0.173
- interaction score (4H3381-bN): -0.622
- interaction score (4H949-bN): -1.05
- interaction score (4H2760-bN): -0.495
- interaction score (4H349-bN): 0.391
- interaction score (4H2518-bN): 0.614
- interaction score (4H2233-bN): -0.887
- interaction score (4H796-bN): -0.418
- interaction score (4H2585-bN): 0.615
- interaction score (4H3364-bN): -0.416
- interaction score (4H2253-bN): -0.654
- interaction score (4H264-bN): -0.799
- interaction score (4H3041-bN): 1.18
Binder: DKIQQLEQEIQELKQKNQELEWEIQELKQ [4H2162-bN]
